Source: publication PMC13544220, “Glycemic and bodyweight effects of GIPR coding variation reflect differences in surface expression and intrinsic functional impairment” (Science Advances, 2026)
Where a chain is given by its changes, count along the chain named. Names and notes keep the numbering of the source.

Legend:
Type in all cases: cell-based, human
[1] = tested on: wild-type and variant SNAP-GIPR; assay: Surface SNAP-GIPR expression (SNAP-tag labelling) in INS-1 cells; details: Fig 4G; Mean
Procedure, shortened: (§1)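 Surface GIPR is quantified from wide-field images after labelling intact transfected cells with a membrane-impermeant SNAP probe at 500 nM for 10 min at room temperature. Specific signal, corrected for nontransfected cells, is normalized to the experiment-wide average or to wild-type.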

[2] = tested on: wild-type and variant SNAP-GIPR; assay: Single-concentration GIP cAMP response by HTRF in AD293 cells; details: Fig S3F, HTRF, mean;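 further: ratio to experiment-wide average response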
Description: (§2) All variants were tested in parallel on each occasion to control for transfection efficiency differences between experiments.

[3] = tested on: wild-type and variant SNAP-GIPR; assay: cADDis cAMP imaging in AD293 cells, ensemble, expression-matched and per decile; details: Fig S3F, cADDis, mean
Procedure, shortened: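 Transient SNAP-GIPR plus cADDis BacMam in AD293; 24 h; SNAP-Surface AF647 500 nM, 10 min RT; wide-field 10X imaging at 37°C in KRBH/6 mM glucose/0.1% BSA. Cells failing IBMX/FSK response criteria excluded.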

[4] = tested on: wild-type and variant SNAP-GIPR; assay: Single-concentration GIP cAMP response by HTRF in INS-1 cells; details: Fig S3E, mean
Description: as §2

[5] = tested on: wild-type and variant SNAP-GIPR; assay: Constitutive and agonist-mediated internalization, reversible SNAP-tag labelling, INS-1 cells; parameters: key to Internalisation, GIP-only / Internalisation, Vehicle / Internalisation, +GIP: % internalization: residual fluorescence after Mesna vs pre-Mesna; details: Mean; for +GIP internalisation (100 nM) / GIP-specific internalisation (100 nM) / Constitutive internalisation (100 nM): Fig 4G; for +GIP internalisation (100 nM) / GIP-specific internalisation (100 nM): GIP 100 nM; for Internalisation, +GIP / Internalisation, GIP-only / Internalisation, Vehicle: Fig S4C, INS-1
Procedure, shortened: (§3)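 Surface SNAP-GIPR signal removable by Mesna was tracked by imaging before and 10 min after treatment in pH 8.6 TNE buffer. Internalization is the Mesna-resistant share of specific fluorescence.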

[6] = tested on: wild-type and variant SNAP-GIPR; assay: Constitutive and agonist-mediated internalization, reversible SNAP-tag labelling, AD293 cells; parameters: key to Internalisation, Vehicle / Internalisation, +GIP / Internalisation, GIP-only: % internalization: residual fluorescence after Mesna vs pre-Mesna; Surface expression: unit not given here; details: Mean; for +GIP internalisation (100 nM) / GIP-specific internalisation (100 nM) / Constitutive internalisation (100 nM) / Surface expression: Fig 4E; for +GIP internalisation (100 nM) / GIP-specific internalisation (100 nM): GIP 100 nM; for Internalisation, +GIP / Internalisation, GIP-only / Internalisation, Vehicle: Fig S4C, AD293
Procedure, shortened: as §3

[7] = tested on: wild-type and variant SNAP-GIPR; assay: Surface SNAP-GIPR expression (SNAP-tag labelling) in AD293 cells; details: for AD293 Surface: Fig S3E, mean; for Surface SNAP-GIPR expression: sheet Fig 1C;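 on all read-outs here: scaled to the experimental average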
Procedure, shortened: as §1

[8] = column repeated, paired with cAMP 100 nM

B1: L262V (protein, UniProt P48546 22-466, looked up, variant L262V)
Gastric inhibitory …: RAETGSKGQTAGELYQRWERYRRECQETLAAAEPPSGLACNGSFDMYVCWDYAAPNATARASCPWYLPWHHHVAAGFVLRQCGSDGQWGLWRDHTQCENPEKNEAFLDQRLILERLQVMYTVGYSLSLATLLLALLILSLFRRLHCTRNYIHINLFTSFMLRAAAILSRDRLLPRPGPYLGDQALALWNQALAACRTAQIVTQYCVGANYTWLLVEGVYLHSLLVLVGGSEEGHFRYYLLVGWGAPALFVIPWVIVRYLYENTQCWERNEVKAIWWIIRTPILMTILINFLIFIRILGILLSKLRTRQMRCRDYRLRLARSTLTLVPLLGVHEVVFAPVTEEQARGALRFAKLGFEIFLSSFQGFLVSVLYCFINKEVQSEIRRGWHHCRLRRSLGEEQRQLPERAFRALPSGSGPGEVPTSRGLSSGTLPGPGNEASRELESYC
Surface expression [1]: 1.205
AD293 100 pM HTRF [2]: 1.19
AD293 100 nM HTRF [2]: 1.331
AD293 100 pM cADDis [3]: 31.1728
AD293 100 nM cADDis [3]: 39.27
INS-1 cAMP (100 nM) [4]: 1.234
+GIP internalisation (100 nM) [5]: 0.5955
GIP-specific internalisation (100 nM) [5]: 0.1388
Constitutive internalisation (100 nM) [5]: 0.4567
Internalisation, +GIP [5]: 50.3417
Internalisation, GIP-only [5]: 11.92
Internalisation, Vehicle [5]: 38.4217
+GIP internalisation (100 nM) [6]: 0.6926
GIP-specific internalisation (100 nM) [6]: 0.1787
Constitutive internalisation (100 nM) [6]: 0.5139
Surface expression [6]: 1.204
Internalisation, +GIP [6]: 57.508
Internalisation, GIP-only [6]: 14.8294
Internalisation, Vehicle [6]: 42.6786
AD293 Surface [7, 8]: 1.3
AD293 Surface ([7]; paired with cAMP 100 pM): 1.3
Surface SNAP-GIPR expression ([7]; replicate 1): 1.375
Surface SNAP-GIPR expression ([7]; replicate 2): 0.996
Surface SNAP-GIPR expression ([7]; replicate 3): 2.76
Surface SNAP-GIPR expression ([7]; replicate 4): 0.9875
Surface SNAP-GIPR expression ([7]; replicate 5): 1.257
Surface SNAP-GIPR expression ([7]; replicate 6): 2.431
Surface SNAP-GIPR expression ([7]; replicate 7): 1.521
Surface SNAP-GIPR expression ([7]; replicate 8): 0.9638
Surface SNAP-GIPR expression ([7]; replicate 9): 1.328
Surface SNAP-GIPR expression ([7]; replicate 10): 1.382
Surface SNAP-GIPR expression ([7]; replicate 11): 1.153
Surface SNAP-GIPR expression ([7]; replicate 12): 1.188
Surface SNAP-GIPR expression ([7]; replicate 13): 1.165
Surface SNAP-GIPR expression ([7]; replicate 14): 1.166
Surface SNAP-GIPR expression ([7]; replicate 15): 1.23
Surface SNAP-GIPR expression ([7]; replicate 16): 1.047
Surface SNAP-GIPR expression ([7]; replicate 17): 1.27
Surface SNAP-GIPR expression ([7]; replicate 18): 1.238
Surface SNAP-GIPR expression ([7]; replicate 19): 0.9807
Surface SNAP-GIPR expression ([7]; replicate 20): 0.8682
Surface SNAP-GIPR expression ([7]; replicate 21): 1.136
Surface SNAP-GIPR expression ([7]; replicate 22): 1.402
Surface SNAP-GIPR expression ([7]; replicate 23): 1.295
Surface SNAP-GIPR expression ([7]; replicate 24): 1.372
Surface SNAP-GIPR expression ([7]; replicate 25): 1.308
Surface SNAP-GIPR expression ([7]; replicate 26): 1.104
Surface SNAP-GIPR expression ([7]; replicate 27): 1.5
Surface SNAP-GIPR expression ([7]; replicate 28): 1.095
Surface SNAP-GIPR expression ([7]; replicate 29): 1.555
Surface SNAP-GIPR expression ([7]; replicate 30): 1.424
Surface SNAP-GIPR expression ([7]; replicate 31): 1.568
Surface SNAP-GIPR expression ([7]; replicate 32): 1.239
Surface SNAP-GIPR expression ([7]; replicate 33): 1.116
Surface SNAP-GIPR expression ([7]; replicate 34): 1.325
Surface SNAP-GIPR expression ([7]; replicate 35): 1.446
Surface SNAP-GIPR expression ([7]; replicate 36): 1.136
Surface SNAP-GIPR expression ([7]; replicate 37): 0.8646
Surface SNAP-GIPR expression ([7]; replicate 38): 1.251
Surface SNAP-GIPR expression ([7]; replicate 39): 1.117
Surface SNAP-GIPR expression ([7]; replicate 40): 1.314
Surface SNAP-GIPR expression ([7]; replicate 41): 1.425

B2: E463Q (protein, UniProt P48546 22-466, looked up, variant E463Q)
Gastric inhibitory …: B1 Gastric inhibitory … with V241L, E442Q
Surface expression [1]: 1.282
AD293 100 pM HTRF [2]: 1.1295
AD293 100 nM HTRF [2]: 1.311
AD293 100 pM cADDis [3]: 34.7191
AD293 100 nM cADDis [3]: 36.9
INS-1 cAMP (100 nM) [4]: 1.2
+GIP internalisation (100 nM) [5]: 0.6116
GIP-specific internalisation (100 nM) [5]: 0.1296
Constitutive internalisation (100 nM) [5]: 0.4821
Internalisation, +GIP [5]: 48.5083
Internalisation, GIP-only [5]: 10.305
Internalisation, Vehicle [5]: 38.2033
+GIP internalisation (100 nM) [6]: 0.6258
GIP-specific internalisation (100 nM) [6]: 0.1525
Constitutive internalisation (100 nM) [6]: 0.4733
Surface expression [6]: 1.14
Internalisation, +GIP [6]: 55.318
Internalisation, GIP-only [6]: 13.3425
Internalisation, Vehicle [6]: 41.9756
AD293 Surface [7, 8]: 1.191
AD293 Surface ([7]; paired with cAMP 100 pM): 1.191
Surface SNAP-GIPR expression ([7]; replicate 1): 1.219
Surface SNAP-GIPR expression ([7]; replicate 2): 1.021
Surface SNAP-GIPR expression ([7]; replicate 3): 0.7247
Surface SNAP-GIPR expression ([7]; replicate 4): 1.851
Surface SNAP-GIPR expression ([7]; replicate 5): 0.8113
Surface SNAP-GIPR expression ([7]; replicate 6): 1.148
Surface SNAP-GIPR expression ([7]; replicate 7): 0.8161
Surface SNAP-GIPR expression ([7]; replicate 8): 1.203
Surface SNAP-GIPR expression ([7]; replicate 9): 1.004
Surface SNAP-GIPR expression ([7]; replicate 10): 0.9721
Surface SNAP-GIPR expression ([7]; replicate 11): 1.39
Surface SNAP-GIPR expression ([7]; replicate 12): 1.373
Surface SNAP-GIPR expression ([7]; replicate 13): 1.65
Surface SNAP-GIPR expression ([7]; replicate 14): 1.648
Surface SNAP-GIPR expression ([7]; replicate 15): 1.459
Surface SNAP-GIPR expression ([7]; replicate 16): 1.416
Surface SNAP-GIPR expression ([7]; replicate 17): 1.284
Surface SNAP-GIPR expression ([7]; replicate 18): 1.262
Surface SNAP-GIPR expression ([7]; replicate 19): 1.404
Surface SNAP-GIPR expression ([7]; replicate 20): 1.518
Surface SNAP-GIPR expression ([7]; replicate 21): 1.445
Surface SNAP-GIPR expression ([7]; replicate 22): 1.187
Surface SNAP-GIPR expression ([7]; replicate 23): 1.117
Surface SNAP-GIPR expression ([7]; replicate 24): 1.135
Surface SNAP-GIPR expression ([7]; replicate 25): 1.182
Surface SNAP-GIPR expression ([7]; replicate 26): 1.219
Surface SNAP-GIPR expression ([7]; replicate 27): 0.8928
Surface SNAP-GIPR expression ([7]; replicate 28): 1.514
Surface SNAP-GIPR expression ([7]; replicate 29): 0.593
Surface SNAP-GIPR expression ([7]; replicate 30): 0.9046
Surface SNAP-GIPR expression ([7]; replicate 31): 0.8556
Surface SNAP-GIPR expression ([7]; replicate 32): 1.334
Surface SNAP-GIPR expression ([7]; replicate 33): 1.324
Surface SNAP-GIPR expression ([7]; replicate 34): 1.052
Surface SNAP-GIPR expression ([7]; replicate 35): 1.061
Surface SNAP-GIPR expression ([7]; replicate 36): 1.215
Surface SNAP-GIPR expression ([7]; replicate 37): 1.115
Surface SNAP-GIPR expression ([7]; replicate 38): 0.8974
Surface SNAP-GIPR expression ([7]; replicate 39): 1.265
Surface SNAP-GIPR expression ([7]; replicate 40): 1.153
Surface SNAP-GIPR expression ([7]; replicate 41): 1.19
